The source of these data is patent US20260209334A1 (MAX PLANCK GESELLSCHAFT ZUR F RDERUNG DER WISSENSCHAFTEN E V, published 2026).

Experiment [1] concerns the target T1, human IL-17A with C-terminal Avi-tag, biotinylated, immobilized on BLI sensors (human, UniProt Q16552 24-155, biotin on the C-terminal Avi-tag (BirA)).
T1 construct: also called biotinylated IL-17A; not shown: C-terminal Avi-tag
The experiment in a line: BLI, biotinylated IL-17A immobilized, monovalent VHH as analyte.

The target of experiment [2] is T2, human IL-17F with C-terminal Avi-tag, biotinylated, immobilized on BLI sensors (human, UniProt Q96PD4 31-163, biotin on the C-terminal Avi-tag (BirA)).
T2 construct: also called biotinylated IL-17F; not shown: C-terminal Avi-tag
T2 sequence: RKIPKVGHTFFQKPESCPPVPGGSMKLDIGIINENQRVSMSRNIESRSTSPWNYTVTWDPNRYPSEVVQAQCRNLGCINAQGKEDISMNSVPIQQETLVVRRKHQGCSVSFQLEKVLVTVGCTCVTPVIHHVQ
Put plainly: BLI, biotinylated IL-17F immobilized, monovalent VHH as analyte. In general terms: BLI is a label-free optical method that tracks binding on a fibre tip over time.

The target of experiment [3] is recombinant human IL-17A (produced in HEK cells, Proteintech HZ-1113) (human, UniProt Q16552 24-155). Put plainly: cell-based or functional assay.
Chain of recombinant human IL-17A (produced in HEK cells, Proteintech HZ-1113) (Q16552 24-155 limits assumed): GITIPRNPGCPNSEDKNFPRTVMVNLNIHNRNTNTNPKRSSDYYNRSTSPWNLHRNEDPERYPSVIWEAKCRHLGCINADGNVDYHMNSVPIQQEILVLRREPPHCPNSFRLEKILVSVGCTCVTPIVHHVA
In experiment [4] the target is T3, recombinant human IL-17F (produced in HEK cells, Proteintech HZ-1116) (human, UniProt Q96PD4 31-163).
T3 sequence (looked up): T2 sequence
The experiment in a line: cell-based or functional assay.

Experiment [5] addresses recombinant human IL-17A/F (produced in CHO cells, R&D Systems 5837-IL) (human, UniProt Q16552 24-155; Q96PD4 31-163, limits assumed). Put plainly: cell-based or functional assay.
For experiment [6], the target named is T1, human IL-17A with C-terminal Avi-tag, …. The experiment in a line: BLI, biotinylated IL-17A immobilized on streptavidin sensors, monovalent VHH as analyte (25, 50, 100 nM), mass transport fit.
The target of experiment [7] is T4, human IL-17A homodimer, bacterially expressed construct (residues 40-155 with GSEDS spacer) (human, UniProt Q16552 40-155).
T4 chain: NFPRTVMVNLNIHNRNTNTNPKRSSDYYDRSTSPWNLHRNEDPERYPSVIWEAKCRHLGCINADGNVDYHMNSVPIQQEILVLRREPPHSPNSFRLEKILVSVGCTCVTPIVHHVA
Put plainly: BLI, biotinylated VHH immobilized on streptavidin sensors, IL-17 as analyte (10, 20, 40 nM), mass transport fit; apparent value, avidity possible.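 Note: wavelength shift (nm) signal, 800 s association then 800 s dissociation, reference from parallel sensors without VHH, avidity from immobilized VHH may lower apparent off-rates.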

The target of experiment [8] is T5, human IL-17F homodimer, bacterially expressed construct (residues 39-163 with GSEGE linker) (human, UniProt Q96PD4 39-163).
T5 construct: also called IL-17F dimer
T5 chain: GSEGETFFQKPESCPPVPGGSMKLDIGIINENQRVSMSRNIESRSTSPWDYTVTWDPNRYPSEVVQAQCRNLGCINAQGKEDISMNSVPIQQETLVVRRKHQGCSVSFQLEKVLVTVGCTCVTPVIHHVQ
Described as above.

In experiment [9] the target is T6, human IL-17A/F heterodimer, bacterially expressed construct (human, UniProt Q16552 40-155; Q96PD4 39-163, limits assumed).
T6 construct: IL-17A unit with N68D, IL-17F unit with N83D and C137S, both with GSEDS spacer; already in the entries
The description is as above.

Experiment [10] has as its target T2, human IL-17F with C-terminal Avi-tag, …. The experiment in a line: BLI, biotinylated IL-17F immobilized, monovalent VHH as analyte; 2:1 heterogenous model, high affinity component.
Experiment [11] addresses T1, human IL-17A with C-terminal Avi-tag, …. Put plainly: BLI, biotinylated IL-17A immobilized, monovalent VHH as analyte; 2:1 heterogenous model, high affinity component.
The target of experiment [12] is T6, human IL-17A/F heterodimer, bacterially …. Put plainly: BLI, VHH immobilized, IL-17 as analyte; apparent KD with avidity; µM as printed (Table 3 uses pM).

Where a chain is given by its changes, count along the chain named.

Chain of recombinant human IL-17A/F (produced in CHO cells, R&D Systems 5837-IL) (Q16552 24-155 limits assumed, chain 1 of 2, one chain of several): as the sequence (Q16552 24-155 limits assumed) above

B1: Bm43B02 (VHH)
VHH: QVQLVESGGGLVQAGGSLNLSCVISRRTPSGYAMGWFRQASGKEREFVAAISWIGGGAVYADSVKGRFTMSRDNAKNTVYLQMNSLKPEDTAVYYCNDMPYGLDTTMDDYDYWGQGTLVTVSS
notes: Class A, second generation
As to B1, the values for the Kd in experiment [1] and in [2] were 0.13 nM and 0.075 nM, respectively. Moreover, the “Neutralization potency, ranking from 1 = the best to 4 (HEK-Blue IL-17 reporter cells)” value (“Neutralization potency, ranking” for short) in experiment [3], in experiment [4] and in experiment [5] was 2 rank in each case.

B2: Bm44B11 (VHH)
VHH: B1 VHH with L118Q
notes: Class A, second generation
As to B2, the Kd was 0.15 nM in experiment [1] and 0.09 nM in experiment [2]. Also, the “Neutralization potency, ranking” value worked out at 3 rank in [3], 1 rank in experiment [4] and 1 rank in experiment [5].

B3: Bm18B05 (VHH)
VHH: QVQLVESGGGLVQPGGSLRLSCAVSGRTFSSYAMGWFRRPPGKEREFVAAISWSGGDTKYADFVTDRFTISRDDAKSTVYLQMNSLKPEDTAVYYCNDMPYGLDTRMDEYEYWGQGTQVTVSS
notes: Class A, first generation
Turning to B3, the Kd in experiment [6] worked out at 2 nM.

B4: Re42H11 (VHH)
VHH: QVQLVESGGGLVQAGGSLRLSCAASGLTASSYAMGWFRQAPGKEREFVAAISWISGGTKYADSVKGRFTMSRDNAKKQVYLEMNSLKPEDTAVYYCNDMPYGLDTRMDEYAYWGQGTQVTVSS
notes: Class A, first generation; For the crystal it was made with a His14-ScSUMO tag that was cleaved off
For B4, the Kd in experiment [6] amounted to 1 nM.

B5: Re42B03 with C-terminal Avi-Biotin-tag, biotinylated (VHH)
VHH: B4 VHH with A29G, A61T, G66D, N74Y, A111V
modifications: biotin on the C-terminal Avi-tag (BirA)
notes: not shown: C-terminal Avi-Biotin-tag
The koff is a measure of how fast the partners let go of each other. The term kon denotes the rate constant with which the complex forms. As to B5, in experiment [7], the Kd was not above 0.01 nM, the off-rate (koff) was not above 1e-07 s⁻¹ and the kon was found to be 120000 M⁻¹ s⁻¹. In experiment [8], the Kd is not above 0.01 nM, the koff is not above 1e-07 s⁻¹ and the kon came out at 260000 M⁻¹ s⁻¹. Further, in experiment [9], the Kd was not above 0.01 nM, the koff is not above 1e-07 s⁻¹ and the kon is 340000 M⁻¹ s⁻¹.

B6: Re42H11 with C-terminal Avi-Biotin-tag, biotinylated (VHH)
VHH: B4 VHH
modifications: biotin on the C-terminal Avi-tag (BirA)
notes: as for B5
With B6, in experiment [7], the Kd is not above 0.01 nM, the koff was not above 1e-07 s⁻¹ and the kon came to 120000 M⁻¹ s⁻¹. Moreover, in experiment [8], the Kd was not above 0.01 nM, the koff is not above 1e-07 s⁻¹ and the kon turned out to be 270000 M⁻¹ s⁻¹. In experiment [9], the Kd is not above 0.01 nM, the koff is not above 1e-07 s⁻¹ and the kon worked out at 360000 M⁻¹ s⁻¹.

B7: Re42B03 (VHH)
VHH: B4 VHH with A29G, A61T, G66D, N74Y, A111V
notes: Class A, first generation
B7 registered a Kd in [6] of 0.7 nM.

B8: VHH662 (VHH)
VHH: EVQLVESGGGSVQAGDSLRLSCAASGRANSINWFGWFRQTPGKEREFVAGIRWSDAYTEYANSVKGRFTISRDNAKNTVDLQMDSLKPEDTAVYYCVLDLSTVRYWGQGTQVTVSS
notes: Control VHH of Ablynx, disclosed in WO2012156219
As to B8, the Kd was 0.115 nM in experiment [1] and 16 nM in experiment [2]. Also, the “Neutralization potency, ranking” value is 2 rank in experiment [3], 4 rank in experiment [4] and 1 rank in experiment [5].

B9: Bm42A03 (VHH)
VHH: QVQLVESGGGLVQPGGSLRLSCVASGFTFSSFAMSWYRQDPGKERKLVAAITNDGGTTFYSDLVKGRFTISRDNTKNTVYLQMNNVKPDDAAVYYCMAVRGLYGSNWYDYPFELWGQGTQVTVSS
notes: Class C, second generation
As for B9, the Kd in [10] is 0.35 nM; in experiment [11], 0.15 nM. For the same molecule, the “Neutralization potency, ranking” value in [3], in experiment [4] and in [5] was 1 rank throughout.

B10: Bm44G10 (VHH)
VHH: B9 VHH with K43R
notes: Class C, second generation
On to B10, for which the Kd is 0.35 nM in [10] and 0.2 nM in experiment [11]. In addition, the “Neutralization potency, ranking” value came to 1 rank in [3], 3 rank in experiment [4] and 1 rank in experiment [5].

B11: Re42B04a (VHH)
VHH: QVQLVESGGGLVQVGGSLRLSCEVSGLPVSSYAMGWFRQAPEKEREFVAAISWIGGDSRYAHFVKGRFTISRDNAKNTVHLQMDSLKPEDTAVYYCNDMPYGLDTRMDEYEYWGQGTQVTVSS
notes: Class A; Monovalent VHH
Consider B11, for which the Kd is not above 0.01 nM in experiment [6], 0.05 nM in experiment [1] and 0.5 nM in experiment [2]. For the same molecule, the “Neutralization potency, ranking” value in experiment [3] was 1 rank; in experiment [4] it was 2 rank; in [5], 1 rank.

B12: Re42B04 with C-terminal Avi-Biotin-tag, biotinylated (VHH)
VHH: B11 VHH with Q115L
modifications: biotin on the C-terminal Avi-tag (BirA)
notes: as for B5
Take B12: the Kd in [12] is not above 20000 nM; in experiment [7], not above 0.01 nM; in [8], not above 0.01 nM; in experiment [9] it was not above 0.01 nM. The koff in [7], in experiment [8] and in experiment [9] was not above 1e-07 s⁻¹ throughout. Besides, the association rate constant (kon) in experiment [7] came out at 110000 M⁻¹ s⁻¹; in [8] it was 140000 M⁻¹ s⁻¹; in [9], 240000 M⁻¹ s⁻¹.

B13: Bm45G07 (VHH)
VHH: QVQLVESGGGFVQAGGSLKLSCSVSGNTFITNHMGWFRQPPGKGREFVAGIRWSDGSTFYGDSVRGRFTISGDNAKHTLYLQMNSLKPDDTAVYYCYIDSGSDRYYGQGTLVTVSS
notes: Class D, second generation
Turning to B13, the Kd in experiment [1] is 0.06 nM; in [2], 4 nM. Besides, the “Neutralization potency, ranking” value in experiment [3] amounted to 1 rank; in experiment [4], 2 rank; in [5], 1 rank.

B14: Bm42B11 (VHH)
VHH: QVQLVESGGDLVQAGGSLRLSCSVSGLRVSSYAMGWFRQAPGKEREFVAAISWVGGDTRYADSVKGRFTMSRDNAKKQVYLEMNSLKPEDTAVYYCNDMPYGMETRMDDYASWGQGTQVTVSS
notes: Class A, second generation
Take B14: the Kd in experiment [1] is not above 0.01 nM; in [2], 2 nM. The “Neutralization potency, ranking” value in experiment [3] is 1 rank; in experiment [4], 2 rank; in experiment [5] it was 1 rank.
